PMC3098852, “Molecular Design, Functional Characterization and Structural Basis of a Protein Inhibitor Against the HIV-1 Pathogenicity Factor Nef” (PLoS ONE, 2011)

B1: GST-NI1-2, GST fusion of Hck-SH3 (78-138) with RT loop V90SWSPD (domain or fragment)
chain: not shown
notes: source: bacteria (pGEX-4T1 Tev vector), purified (GSH resin, Superdex 75); not shown: GST, N-terminal, kept
B2: NI1-2, Hck-SH3 (78-138) with RT loop V90SWSPD (domain or fragment)
chain: not shown
notes: source: bacteria (pGEX-4T1 Tev vector), purified (GSH resin, Superdex 75)
B3: NI1-3, Hck-SH3 (78-138) with RT loop Y90SPFSW (domain or fragment)
chain: SEDIIVVALYDYYSPFSWDLSFQKGDQMVVLEESGEWWKARSLATRKEGYIPSNYVARVDS
notes: as for B2

Key:
[1] = target: T1, HIV-1 NefSF2 wild type, full length (1-210), C210A (HIV-1 SF2, UniProt P03407, C210A); assay: ITC; conditions: both partners purified
T1 construct: source: E. coli BL21(DE3), purified (Ni-NTA, Superdex 75)

[2] = target: T2, HIV-1 NefSF2 (Δ1-44), C210A (HIV-1 SF2, UniProt P03407 45-210, C210A); assay: ITC; conditions: both partners purified
T2 construct: source: E. coli BL21(DE3), purified (Ni-NTA, Superdex 75)

| Binder | Kd [1] [nM] | dH [1] [kcal/mol] | stoichiometry N [1] | Kd [2] [nM] | dH [2] [kcal/mol] | stoichiometry N [2] |
| --- | --- | --- | --- | --- | --- | --- |
| B1 | 140 ± 6.7 | -8.9 ± 0.02 | 1.07 |  |  |  |
| B2 |  |  |  | 179 ± 29 | -8.16 ± 0.07 | 0.99 |
| B3 |  |  |  | 48 ± 11 | -7.99 ± 0.07 | 0.95 |
